# Experimental data from the nanobody polyreactivity screen of Harvey et al. (2022).
# Experiment: yeast display, Sf9 membrane polyspecificity reagent, FACS + sequencing; frameworks hold sequencing errors
# Method in brief: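 Galactose induction of a Saccharomyces cerevisiae BJ5465 synthetic nanobody display library ran 36–48 hours. The cells were then stained for 1 hour at 4 °C with 10% biotinylated, detergent-solubilized Sf9 membrane reagent, pulled down on streptavidin microbeads and FACS-sorted into low and high (top ~1%) gates on expression and reagent-binding fluorescence. Labels for polyreactivity follow the gate of origin.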
row,Sequence,polyreactivity (PSR sort gate)
1,QVQLVESGGGLVQAGGSLRLSCAASGFTFARYAMGWYTKAPGKERELVARISSDGGGTDYADSVKGRFTISRDNAKNTVYLQMNSLKPEDTAVYYCAARFPGYHYFKYYYWGQGTQVTVSS,low polyreactivity
2,QVQLVESGGGLVQAGGSLRLSCAASGISYRWYAMGWYRQAPGKERELVAAISSGGSTTYADSVKGRFTISRDNAKNTVYLQMNSLKPEDTAVYYCAARYQWYSADYDYWGQGTQVTVSS,high polyreactivity
3,QVQLVESGGGLVQAGGSLRFSCPASGLIFYYYVMGWYRQAPGKEREFVAAIRYRSSSTYYADSVKGRFTISRVNAKNTVYLQMNSVKPEDTAVYYCGADIYTYNLFYHGRWLDYNYWGQGTQVTVSS,high polyreactivity
4,QVQLVESGGGLVQAGGSLRLSCAASGRIFGRYAMGWYRQAPGKEREVVATITRNGGGTYADSVKGRFTISRDNAKNTVYLQMNSLKPEDTAVYYCAVDTAAAWERRGFDSWGQGTQVTVSS,low polyreactivity
5,QVQLEESGGGLVQAGGSLRIICAASGRTFQLYAMGWYRQAPGKERELVAAITWSSGRTSYADSVKGRFTISRDNAKNTVYLQMNSLKPEDTAVYYCAADVWGGLLPGYDYWGQGTQVTVSS,high polyreactivity
6,QVQLVESGGGLVQAGGSLRLSCAASGSIFDEYAMGWYRQAPGKERELVAAITYSGGDTYYADSVKGRFTISRDNAKNTVYLQMNSLKPEDTAVYYCAVDTPLEYYHQQAYVAGEYWGQGTQVTVSS,low polyreactivity
7,QVQLVESGGGLVHAGGSLRLSCAASGNTYLYYGLGWYRQAPVKEREMVAAITQSGGTTYYADSVKGRFTISRDNAKNTVYLQMNSLTPEDTAVYYCAATRYYYYWYVYDDRGDYWGQGTQVTVSS,low polyreactivity
8,QVQLVESGGGLVQAGGSLRLSCAASGRTFYVNAMGWYRQAPGKERELVARISSSGITYYADSVKGRFTISRDNAKNSVSLQMNSLKPEDTAVYYCAAGPWFYYWGLGTQVTVSS,low polyreactivity
9,QVQLVESGGGLVQAGGSLRLSCAASGSTFTPYAMGWYRQAPGKERELVAAISRRGGSTSYADSVKGRFTISRDNAKNTVYLQMNSLKPEDTAVYYCNKKTAASDYDYWGQGTQVTVSS,high polyreactivity
10,QVQLVESGRGLLQAGGSLRLSCAASGRIFTRYAMGWYRQAPGKERELVAAISSGGGNTYYADSVKGRFTISRYNAKNTVYLQMNILKPEDTAVYYCAALRSWRKTGGAQRYWYDYWGQGTQVTVLS,high polyreactivity
11,QVQLVESGGGLVQAGGSLRLSCAASGRIFYTYAMGWYRRAPGKERELVAAIRISGVRTYYADSVKGRFTISRDNAKNTVYLQMNSLKPEDTAVYYCAADSYGDRMDYWGQGTQVTVSS,high polyreactivity
12,QVQLVESGGGLVQAGGSLRLSCAASGIFRQNAMGWYRQAPGKERELVAGISQSGGSTYYADSVKGRFTISRDNAKNTVYLQMNSLKPEDTSVYYCALVSIWGYDYWGQGTQVTVSS,low polyreactivity
13,QDQHVESGGGLVQAGGSLRLSCAASGSTLLYYVMGWYRQAPGKERELVAAITGTGGRTYYADSVKGRFTISRDNAKNTVYLQMNSLKPEDTAVYYCAREWRTRIYYYWGQGTQVTVSS,low polyreactivity
14,QVQLVESGGGLVQAGGSLRLSCAASGSTFWYYAMGWSRQAPGKERELVAAIRWSDGSTYYADSVKGRFTISRDNAKNTVYLQMNSLKPEDTAVYYCEYYYWGLGTQVTVSS,low polyreactivity
15,QVQLVESGGGLVQAGGSLRLSCAASGSTFGYNAMGWYRQAPGKERELVAAITWSGGSTYYADSVKGRFTISRDNAKNTFYFQMNSLKPEDTAVYYCAAEWGVGKSWLEYLLFYYWGQGTQVTVSS,low polyreactivity
16,QVQLVESGGGLVQAGGRLRLSCAASGRIFVYYAMGWYRQAPGKERELVAAINAGGSTNYADSVKGRFTISRDNAKNTVYLQMNSLKPEDTAVYYCATDRYWWSGFDYWGQGTQVTVSS,high polyreactivity
17,QVQLVESGGGLVQAGGSLRLRCAASGITLLNYAMGWYRQAPWKERELVAAISWSGGRTYYADSVKGRFTMSRDNAKNTDYLHMNSLNPQDTAVYYCAAARGVNSYGYWGQGTQVTVSS,high polyreactivity
